From patent publication US20100221329A1 (SYNERGY PHARMACEUTICALS, published 2010)
Bridges are numbered along the chain shown (N, C = ends). Where no end group is shown, it is not given here.

Biological target: guanylate cyclase C (human, UniProt P25092 24-1073)
Experiment: cell-based or functional assay

guanylate cyclase C, sequence (P25092 24-1073): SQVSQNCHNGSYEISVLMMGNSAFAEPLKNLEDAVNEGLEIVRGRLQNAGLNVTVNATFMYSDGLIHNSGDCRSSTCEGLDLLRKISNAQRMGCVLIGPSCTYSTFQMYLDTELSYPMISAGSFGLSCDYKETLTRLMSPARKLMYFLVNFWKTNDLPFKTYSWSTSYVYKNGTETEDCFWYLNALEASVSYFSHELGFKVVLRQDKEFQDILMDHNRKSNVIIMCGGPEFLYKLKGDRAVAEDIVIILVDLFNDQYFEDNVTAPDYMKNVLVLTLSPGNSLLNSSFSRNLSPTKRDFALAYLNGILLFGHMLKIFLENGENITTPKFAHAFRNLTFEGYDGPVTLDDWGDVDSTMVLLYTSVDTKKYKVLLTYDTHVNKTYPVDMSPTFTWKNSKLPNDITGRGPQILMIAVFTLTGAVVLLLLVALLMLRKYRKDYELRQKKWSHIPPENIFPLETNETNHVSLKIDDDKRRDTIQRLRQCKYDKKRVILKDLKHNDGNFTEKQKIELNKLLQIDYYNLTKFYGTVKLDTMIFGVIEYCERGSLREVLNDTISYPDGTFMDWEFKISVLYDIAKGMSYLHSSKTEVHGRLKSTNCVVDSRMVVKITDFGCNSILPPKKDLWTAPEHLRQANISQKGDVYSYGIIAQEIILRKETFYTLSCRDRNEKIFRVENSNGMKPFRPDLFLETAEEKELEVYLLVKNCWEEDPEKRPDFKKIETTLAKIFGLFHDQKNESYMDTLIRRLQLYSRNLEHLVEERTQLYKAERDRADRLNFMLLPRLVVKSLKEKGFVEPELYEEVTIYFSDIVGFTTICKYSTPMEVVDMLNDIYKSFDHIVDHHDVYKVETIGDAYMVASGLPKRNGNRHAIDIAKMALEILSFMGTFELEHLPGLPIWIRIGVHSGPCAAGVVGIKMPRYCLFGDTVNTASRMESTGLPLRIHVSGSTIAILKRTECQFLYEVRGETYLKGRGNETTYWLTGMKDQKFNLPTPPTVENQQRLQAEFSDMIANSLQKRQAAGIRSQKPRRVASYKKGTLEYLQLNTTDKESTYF

stimulation of cGMP synthesis in T84 cells (peptide at 1.0 µM, 30 min), biological activity relative to SP-304: ~80 % of the biological activity of SP-304
Binder: NDECELCVNVACTGC (disulfide 4-12, 7-15) [SP-338]
